Experimental findings from patent US20050147610A1 are described below.

Experiment [1] deals with natural human IL-18 (endogenous, human whole blood) (human) (UniProt Q14116). The experiment is described as follows: cell-based or functional assay.
The target in experiment [2] is recombinant mature human IL-18 (preparation not specified) (human) (UniProt Q14116). The experiment can be described thus: cell-based or functional assay.
Experiment [3] addresses 125I labeled rhu-IL-18 (human) (UniProt Q14116). The experiment is described as follows: RBA: inhibition of 125I-rhu-IL-18 binding to IL-18Rαβ on KG-1 cells.
For experiment [4], the target named is (4C/A)-huIL-18 (4C/A mutant of mature human IL-18) (human) (UniProt Q14116). The experiment can be described thus: BIACORE. (Surface plasmon resonance follows binding to a sensor surface in real time, without labels.)
The target in experiment [5] is NEM-huIL-18 (recombinant mature human IL-18 treated with N-ethyl maleiamide) (human) (UniProt Q14116). The experiment can be described thus: Biacore.
For experiment [6], the target named is (4C/A)-huIL-18 (4C/A mutant of mature human IL-18) (human) (UniProt Q14116). The experiment is described as follows: Biacore.
In experiment [7] the target is NEM-huIL-18 (recombinant mature human IL-18 treated with N-ethyl maleiamide) (human) (UniProt Q14116). The experiment can be described thus: cell-based or functional assay.

B1: Murine anti-human IL-18 mAb (125-2H) (antibody, from another filing, V domains shown)
VH: EIQLQQSGPELVKPGASVKVSCKASGYSFTDYFIYWVKQSHGKSLEWIGDIDPYNGDTSYNQKFRDKATLTVDQSSTTAFMHLNSLTSEDSAVYFCARGLRFWGQGTLVTVSA
VL: DIQMTQSPSSLSASLGERVSLTCRASQDIGSKLYWLQQEPDGTFKRLIYATSSLDSGVPKRFSGSRSGSDYSLTISSLESEDFVDYYCLQYASSPYTFGGGTKLAIKR
B1 returned a WBA, Neutralization Potency in vitro (IC50, nM) in experiment [1] of 3 nM. In addition, in experiment [2], the KG-1, Neutralization Potency in vitro (IC50, nM) is 0.2 nM. In experiment [3], the IC50 (commonly the concentration needed to halve the response being measured) was above 300 nM. Moreover, in experiment [4], the Kd (commonly the equilibrium constant for the complex coming apart) came to 0.55 nM, the koff (usually the rate constant with which the complex falls apart) was 0.00011 s⁻¹ and the kon (commonly the second-order rate constant of association) came out at 190000 M⁻¹ s⁻¹. Further, the Kd in experiment [5] turned out to be 0.2 nM. In addition, the dissociation constant (Kd) in experiment [6] is 0.2 nM.

B2: 268 (antibody, V domains shown)
VH: ZVQLVESGGGVVQPGRSLRLSCAASGFTFRNYGLHWVRQAPGKGLEWVAVIWYDGSNKYYADSVKGRFTISRDNSKNTLYLQMNSLRAEDTAVYYCARESYYYYGMDVWGQGTTVTVSS
VL: EIVMTQSPATLSVSPGERATLSCRASQSFNSNLVWYQQKPGQAPRLLIYGASTRATGIPARFSGSGSGTEFTLTISSLQSEDFAVYYCQQYNNWTWTFGQGTKVEIKR
In the case of B2, the KG-1 Assays (IC50, M), NEM-rhuIL-18 in experiment [7] was found to be 7e-09 M.
